This is an account of results in patent publication US20100169995A1 (RESEARCH FOUNDATION OF STATE UNIVERSITY OF NEW YORK, published 2010).

To fix the notation:
B1: human IQGAP2 (cDNA, transiently expressed in COS1 cells) (other, UniProt Q13576 1-1575, looked up)
chain: MPHEELPSLQRPRYGSIVDDERLSAEEMDERRRQNIAYEYLCHLEEAKRWMEVCLVEELPPTTELEEGLRNGVYLAKLAKFFAPKMVSEKKIYDVEQTRYKKSGLHFRHTDNTVQWLRAMESIGLPKIFYPETTDVYDRKNIPRMIYCIHALSLYLFKLGIAPQIQDLLGKVDFTEEEISNMRKELEKYGIQMPSFSKIGGILANELSVDEAALHAAVIAINEAVEKGIAEQTVVTLRNPNAVLTLVDDNLAPEYQKELWDAKKKKEENARLKNSCISEEERDAYEELLTQAEIQGNINKVNRQAAVDHINAVIPEGDPENTLLALKKPEAQLPAVYPFAAAMYQNELFNLQKQNTMNYLAHEELLIAVEMLSAVALLNQALESNDLVSVQNQLRSPAIGLNNLDKAYVERYANTLLSVKLEVLSQGQDNLSWNEIQNCIDMVNAQIQEENDRVVAVGYINEAIDEGNPLRTLETLLLPTANISDVDPAHAQHYQDVLYHAKSQKLGDSESVSKVLWLDEIQQAVDDANVDKDRAKQWVTLVVDVNQCLEGKKSSDILSVLKSSTSNANDIIPECADKYYDALVKAKELKSERVSSDGSWLKLNLHKKYDYYYNTDSKESSWVTPESCLYKESWLTGKEIEDIIEEVTVGYIRENIWSASEELLLRFQATSSGPILREEFEARKSFLHEQEENVVKIQAFWKGYKQRKEYMHRRQTFIDNTDSIVKIQSWFRMATARKSYLSRLQYFRDHNNEIVKIQSLLRANKARDDYKTLVGSENPPLTVIRKFVYLLDQSDLDFQEELEVARLREEVVTKIRANQQLEKDLNLMDIKIGLLVKNRITLEDVISHSKKLNKKKGGEMEILNNTDNQGIKSLSKERRKTLETYQQLFYLLQTNPLYLAKLIFQMPQNKSTKFMDTVIFTLYNYASNQREEYLLLKLFKTALEEEIKSKVDQVQDIVTGNPTVIKMVVSFNRGARGQNTLRQLLAPVVKEIIDDKSLIINTNPVEVYKAWVNQLETQTGEASKLPYDVTTEQALTYPEVKNKLEASIENLRRVTDKVLNSIISSLDLLPYGLRYIAKVLKNSIHEKFPDATEDELLKIVGNLLYYRYMNPAIVAPDGFDIIDMTAGGQINSDQRRNLGSVAKVLQHAASNKLFEGENEHLSSMNNYLSETYQEFRKYFKEACNVPEPEEKFNMDKYTDLVTVSKPVIYISIEEIISTHSLLLEHQDAIAPEKNDLLSELLGSLGEVPTVESFLGEGAVDPNDPNKANTLSQLSKTEISLVLTSKYDIEDGEAIDSRSLMIKTKKLIIDVIRNQPGNTLTEILETPATAQQEVDHATDMVSRAMIDSRTPEEMKHSQSMIEDAQLPLEQKKRKIQRNLRTLEQTGHVSSENKYQDILNEIAKDIRNQRIYRKLRKAELAKLQQTLNALNKKAAFYEEQINYYDTYIKTCLDNLKRKNTRRSIKLDGKGEPKGAKRAKPVKYTAAKLHEKGVLLDIDDLQTNQFKNVTFDIIATEDVGIFDVRSKFLGVEMEKVQLNIQDLLQMQYEGVAVMKMFDKVKVNVNLLIYLLNKKFYGK
B2: IQGAP2 (mouse, endogenous, liver lysate) (other, UniProt Q3UQ44 1-1575, looked up)
chain: MPHEELPSLQRPRYGSIVDDERLSAEEMDERRRQNIAYEYLCHLEEAKRWMEVCLVEELPPTTELEEGLRNGVYLAKLAKFFAPKMVSEKKIYDVEQTRYKKSGLHFRHTDNTVQWLRAMEAIGLPKIFYPETTDVYDRKNIPRMIYCIHALSLYLFKLGIAPQIQDLLGKVDFTEEEISNMRKELEKYGIQMPAFSKIGGILANELSVDEAALHAAVIAINEAIEKGVAKQTIITLRNPNAVLTCVDDSLSQEYQKELWEAKKKKEESAKLKNSCISEEERDAYEELLTQAEIQSNISTVNRMAAVDHINAVLQEGDPENTLLALKKPEAQLPAVYPFAAVMYQNELFNLQKQNTSNYLAHEELLIAVEMLSAVALLNQALESSDLVAVQNQLRSPTIGFNNLDEAHVDRYADALLSVKQEALSQGQDTLSWNEIQNCIDMINNQIQEENDRMVVLGYINEAIDAGNPLKTLDTLLLPTANIRDVDPDCAQHYQDVLFYTKSQKLGDPKNVSKVLWLDEIQQAINEANVDENRAKQWVTLVVDVNECLDRKQSDHILTALKSSPSNIHNILPECANKYYDTLVKAKESKTDNESSEGSWVTLNVQEKYNYYYNTDSKEGSWVPPELCLSKESWLTGEEIEDIVEEVTSDYIREKLWSASEDLLVRFEATTLGPALREEFEARKAFLYEQTESVVKIQAFWKGFKQRQEYLHRQQVFAGNVDSVVKIQSWFRMVTARKSYLSRLRYFEDHKNEIVKIQSLLRASKARDDYKALVGSENPPLTVIRKFVYLLDQSDLDFQEELEVARLREEVVTKIRANQQLEKDLNLMDIKIGLLVKNRITLEDVISHRKKLNKKKGGEIEILNNTDNKGIKSLSKERRKTLETYQQLFYLLQTKPSYLAKLIFQMPQNKSTKFMDTVIFTLYNYASNQREEYLLLKLFKTALEEEIKSKVDQVQDIVTGNPTVIKMVVSFNRGARGQNTLRQLLAPVVKEIIEDKALVINTNPVEVYKAWVNQLETQTGEASKLPYDVTTEQALTYPEVKNKLEASIENLRKVTDKVLGSIISSLDLLPYGLRYIAKVLKNSIREKFPDATEEELLKIVGNLLYYRYMNPAIVAPDGFDIIDMTAGGQINSNQRRNLGSVAKVLQHAASNKLFEGENEHLSSMNNYLSETYQEFRKYFQEACDVPEPEEKFNMDKYTDLVTVSKPVIYISIEEIINTHLLLLEHQDAIATEKSDLLNELLESLGEVPTVESFLGEGAVDPNDPNKENTLNQLSKTEISLSLTSKYDVKDGEAVDGRSLMIKTKKLIIDVTRNQPGSTLTEILETPATGQQELEHAKDMESRAVVDSRTPEEGKQSQAVIEDARLPLEQKKRKIQRNLRTLEQTGHVSSKNKYQDILNEIAKDIRNQRIHRKLRKAELSKLQQTLNALNKKAAFYEDQINYYDTYIKTCVDNLKRKNSRRSIKLDGKAEPKGTKRVKPVRYTAAKLHDKGVLLGIDDLQTNQFKNVMFDIIATEDMGIFDVRSKFLGVEMEKVQLNIQDLLQMQYEGVAVMKMFDKVKVNVNLLIYLLNKKFYGK
B3: E-cadherin (mouse, endogenous, liver lysate) (other, UniProt P09803 157-884, looked up)
chain: DWVIPPISCPENEKGEFPKNLVQIKSNRDKETKVFYSITGQGADKPPVGVFIIERETGWLKVTQPLDREAIAKYILYSHAVSSNGEAVEDPMEIVITVTDQNDNRPEFTQEVFEGSVAEGAVPGTSVMKVSATDADDDVNTYNAAIAYTIVSQDPELPHKNMFTVNRDTGVISVLTSGLDRESYPTYTLVVQAADLQGEGLSTTAKAVITVKDINDNAPVFNPSTYQGQVPENEVNARIATLKVTDDDAPNTPAWKAVYTVVNDPDQQFVVVTDPTTNDGILKTAKGLDFEAKQQYILHVRVENEEPFEGSLVPSTATVTVDVVDVNEAPIFMPAERRVEVPEDFGVGQEITSYTAREPDTFMDQKITYRIWRDTANWLEINPETGAIFTRAEMDREDAEHVKNSTYVALIIATDDGSPIATGTGTLLLVLLDVNDNAPIPEPRNMQFCQRNPQPHIITILDPDLPPNTSPFTAELTHGASVNWTIEYNDAAQESLILQPRKDLEIGEYKIHLKLADNQNKDQVTTLDVHVCDCEGTVNNCMKAGIVAAGLQVPAILGILGGILALLILILLLLLFLRRRTVVKEPLLPPDDDTRDNVYYYDEEGGGEEDQDFDLSQLHRGLDARPEVTRNDVAPTLMSVPQYRPRPANPDEIGNFIDENLKAADSDPTAPPYDSLLVFDYEGSGSEAASLSSLNSSESDQDQDYDYLNEWGNRFKKLADMYGGGEDD

In experiment [1] the target is human IQGAP1 (full-length cDNA, transiently expressed in COS1 cells) (human, UniProt P46940 2-1657). The experiment in a line: reciprocal co-immunoprecipitation from lysates of transiently transfected COS1 cells, immunoblot detection. The procedure:
(§1) To further probe the relationships between IQGAP1, IQGAP2, β-catenin, and E-cadherin, a series of immunoprecipitation experiments were conducted using whole-liver lysates from Iqgap1^{-/-}, Iqgap2^{-/-}, and wildtype mice. […] In contrast, there was no evidence for specific interaction between E-cadherin and IQGAP2 in either E-cadherin- or IQGAP2-specific immunoprecipitations. […] Using normal hepatocytes, however, neither IQGAP1- nor IQGAP2-specific pull-down assays coprecipitated the corresponding homologous protein. Transient transfections of […] (which endogenously express IQGAP1) were subsequently used as an in vitro model system to specifically address the existence of putative IQGAP1-IQGAP2 heterodimers. As evident in FIG. 15B, IQGAP1 or IQGAP2 were not pulled down by reciprocal immunoprecipitations. Thus, while IQGAP1 and IQGAP2 are normally found as components of a broader quarternary scaffolding complex in hepatocytes, there appears to be no evidence that their presence within this scaffold occurs via direct (heterodimeric) interactions.
(§2) Immunoprecipitation experiments were completed using freshly isolated murine livers essentially as described previously (Schmidt, V. A., et al. 2003. Blood 101:3021-3028). In brief, intact livers were homogenized in 25 mM HEPES-0.15 M NaCl buffer, pH 7.45, supplemented with 0.1% Triton X-100 and standard protease inhibitors. […]
In general terms: A western blot detects proteins with antibodies after separation by electrophoresis.

The target of experiment [2] is IQGAP1 (mouse, endogenous, liver lysate) (mouse, UniProt Q9JKF1 2-1657). Description: reciprocal co-immunoprecipitation from normal mouse hepatocyte/liver lysates, immunoblot detection. As to the method:
as §1, §2

Experiment [3] addresses B2. Description: co-immunoprecipitation from mouse whole-liver lysates, immunoblot detection. The procedure:
as §1, §2

Chain of IQGAP1 (mouse, endogenous, liver lysate) (Q9JKF1 2-1657 limits assumed): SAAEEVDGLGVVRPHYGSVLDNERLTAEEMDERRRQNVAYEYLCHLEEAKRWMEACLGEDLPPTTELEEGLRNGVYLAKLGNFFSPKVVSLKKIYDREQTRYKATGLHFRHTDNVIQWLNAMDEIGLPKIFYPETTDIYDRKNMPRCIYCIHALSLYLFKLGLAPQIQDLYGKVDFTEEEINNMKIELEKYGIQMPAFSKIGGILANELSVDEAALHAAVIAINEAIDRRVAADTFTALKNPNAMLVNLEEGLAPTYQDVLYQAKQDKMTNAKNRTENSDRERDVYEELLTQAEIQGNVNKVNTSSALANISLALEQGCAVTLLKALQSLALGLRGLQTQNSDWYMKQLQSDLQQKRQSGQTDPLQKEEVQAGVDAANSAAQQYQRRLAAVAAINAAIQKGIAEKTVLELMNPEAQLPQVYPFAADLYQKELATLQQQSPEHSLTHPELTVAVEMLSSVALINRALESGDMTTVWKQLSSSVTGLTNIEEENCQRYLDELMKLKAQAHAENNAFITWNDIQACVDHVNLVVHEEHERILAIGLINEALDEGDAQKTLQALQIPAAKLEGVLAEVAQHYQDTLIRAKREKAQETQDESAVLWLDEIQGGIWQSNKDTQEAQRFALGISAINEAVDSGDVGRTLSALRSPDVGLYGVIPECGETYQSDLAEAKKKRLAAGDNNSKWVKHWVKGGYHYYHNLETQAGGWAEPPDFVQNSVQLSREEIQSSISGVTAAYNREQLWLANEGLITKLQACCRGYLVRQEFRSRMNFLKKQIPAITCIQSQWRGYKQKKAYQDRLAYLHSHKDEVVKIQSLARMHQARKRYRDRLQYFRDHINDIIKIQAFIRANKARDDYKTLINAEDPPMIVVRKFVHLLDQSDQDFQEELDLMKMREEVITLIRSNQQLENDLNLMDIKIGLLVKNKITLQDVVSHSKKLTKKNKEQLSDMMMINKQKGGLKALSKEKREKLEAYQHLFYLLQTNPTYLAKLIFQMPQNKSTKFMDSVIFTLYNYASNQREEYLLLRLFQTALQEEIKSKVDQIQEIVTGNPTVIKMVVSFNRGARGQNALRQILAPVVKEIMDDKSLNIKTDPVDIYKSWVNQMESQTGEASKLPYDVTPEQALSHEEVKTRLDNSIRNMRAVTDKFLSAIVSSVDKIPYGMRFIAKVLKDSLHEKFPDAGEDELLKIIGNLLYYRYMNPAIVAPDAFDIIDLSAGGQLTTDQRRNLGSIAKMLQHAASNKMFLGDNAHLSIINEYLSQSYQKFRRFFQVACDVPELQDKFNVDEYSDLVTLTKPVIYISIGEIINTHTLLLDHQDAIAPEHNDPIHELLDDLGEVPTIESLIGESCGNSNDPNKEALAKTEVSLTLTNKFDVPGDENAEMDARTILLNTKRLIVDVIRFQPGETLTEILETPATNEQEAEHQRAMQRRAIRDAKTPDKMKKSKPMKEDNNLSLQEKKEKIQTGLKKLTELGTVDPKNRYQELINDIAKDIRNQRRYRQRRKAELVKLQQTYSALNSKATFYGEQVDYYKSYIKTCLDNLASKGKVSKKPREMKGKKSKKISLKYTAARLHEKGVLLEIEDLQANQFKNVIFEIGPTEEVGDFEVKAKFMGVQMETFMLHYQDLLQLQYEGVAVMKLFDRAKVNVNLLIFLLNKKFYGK
Chain of human IQGAP1 (full-length cDNA, transiently expressed in COS1 cells) (P46940 2-1657 limits assumed): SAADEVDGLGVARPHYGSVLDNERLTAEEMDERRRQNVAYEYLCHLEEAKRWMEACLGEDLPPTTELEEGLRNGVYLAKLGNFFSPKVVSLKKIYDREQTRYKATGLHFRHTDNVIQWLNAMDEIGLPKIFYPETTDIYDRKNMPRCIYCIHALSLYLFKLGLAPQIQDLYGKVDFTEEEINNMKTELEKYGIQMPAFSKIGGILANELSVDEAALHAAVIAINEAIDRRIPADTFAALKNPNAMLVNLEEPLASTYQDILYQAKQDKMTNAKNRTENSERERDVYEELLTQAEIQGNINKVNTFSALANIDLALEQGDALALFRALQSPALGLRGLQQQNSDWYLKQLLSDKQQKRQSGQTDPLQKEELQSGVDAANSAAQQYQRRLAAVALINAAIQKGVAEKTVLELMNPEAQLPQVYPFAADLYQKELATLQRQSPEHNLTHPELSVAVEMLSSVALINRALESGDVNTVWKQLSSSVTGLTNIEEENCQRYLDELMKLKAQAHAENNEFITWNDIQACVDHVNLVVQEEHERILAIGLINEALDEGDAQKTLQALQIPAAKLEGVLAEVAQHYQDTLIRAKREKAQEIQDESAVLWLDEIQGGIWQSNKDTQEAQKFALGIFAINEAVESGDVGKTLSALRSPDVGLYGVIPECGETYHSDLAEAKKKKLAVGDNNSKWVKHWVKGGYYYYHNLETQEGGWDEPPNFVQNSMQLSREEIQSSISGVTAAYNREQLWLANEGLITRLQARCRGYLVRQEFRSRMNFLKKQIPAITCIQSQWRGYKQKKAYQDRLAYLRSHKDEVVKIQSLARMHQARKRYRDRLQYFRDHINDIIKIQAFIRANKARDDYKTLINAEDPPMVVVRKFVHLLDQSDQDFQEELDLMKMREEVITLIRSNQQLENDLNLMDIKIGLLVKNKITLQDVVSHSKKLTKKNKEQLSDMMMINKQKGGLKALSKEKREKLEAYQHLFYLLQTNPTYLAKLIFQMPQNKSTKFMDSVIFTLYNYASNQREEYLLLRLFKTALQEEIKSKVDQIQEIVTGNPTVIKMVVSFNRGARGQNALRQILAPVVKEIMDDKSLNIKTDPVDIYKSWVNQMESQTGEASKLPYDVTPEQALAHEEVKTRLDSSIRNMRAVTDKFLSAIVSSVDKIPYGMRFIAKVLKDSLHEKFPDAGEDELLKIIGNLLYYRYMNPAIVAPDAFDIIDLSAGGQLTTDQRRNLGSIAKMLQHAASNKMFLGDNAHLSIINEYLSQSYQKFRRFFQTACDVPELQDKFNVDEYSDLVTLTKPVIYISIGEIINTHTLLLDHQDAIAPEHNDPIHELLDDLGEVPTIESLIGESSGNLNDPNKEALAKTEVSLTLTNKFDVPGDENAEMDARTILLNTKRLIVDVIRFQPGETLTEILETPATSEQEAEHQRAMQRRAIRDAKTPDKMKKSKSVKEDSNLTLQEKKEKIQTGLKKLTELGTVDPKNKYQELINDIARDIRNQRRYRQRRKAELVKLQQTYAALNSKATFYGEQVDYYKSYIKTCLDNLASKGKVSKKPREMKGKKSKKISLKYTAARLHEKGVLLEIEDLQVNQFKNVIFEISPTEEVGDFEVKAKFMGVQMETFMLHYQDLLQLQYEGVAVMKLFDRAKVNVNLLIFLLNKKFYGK

For B1, the binding result in experiment [1] is “no binding”. Consider B2, for which, in experiment [2], the binding result is on record as “no binding”. For the molecule B3, the binding result in experiment [3] is “no binding”.
